From doi:10.1101/2024.01.30.575082 (bioRxiv, 2024)

Target: the molecule itself
Test: crystal structure

B1: Shethna Protein II (FeSII) from Azotobacter vinelandii (natural protein, UniProt Q44501 1-122, looked up)
chain: MATIYFSSPLMPHNKKVQAVAGKRSTLLGVAQENGVKIPFECQDGNCGSCLVKITHLDGERIKGMLLTDKERNVLKSVGKLPKSEEERAAVRDLPPTYRLACQTIVTDEDLLVEFTGEPGGA
  binding result: binds
